Source: article PMC3557803

Columns and labels:
Experiment in all cases: UV-visible absorbance assay of deamination
Assay type in all cases: biochemical, Martinezella rhizogenes
Conditions in all cases: 20 mM HEPES pH 7.7
[1] = substrate: Nc1nc2ncc(C=O)nc2c(=O)[nH]1
[2] = substrate: Nc1nc2nc(C(=O)O)cnc2c(=O)[nH]1
[3] = substrate: Nc1nc2ncc([C@H](O)[C@H](O)CO)nc2c(=O)[nH]1
[4] = substrate: C[C@H](O)[C@H](O)C1=Nc2c(nc(N)[nH]c2=O)NC1
[5] = substrate: Nc1nc2nccnc2c(=O)[nH]1
[6] = substrate: Nc1nc2ncc(CO)nc2c(=O)[nH]1
[7] = substrate: Nc1nc2ncc(CNc3ccc(C(=O)N[C@@H](CCC(=O)O)C(=O)O)cc3)nc2c(=O)[nH]1
[8] = substrate: Nc1nc2[nH]c(=O)cnc2c(=O)[nH]1
[9] = substrate: Nc1nc2ncc(C(=O)O)nc2c(=O)[nH]1
[10] = substrate: Nc1nc2c(c(=O)[nH]1)N=C([C@H](O)[C@H](O)CO)CN2
[11] = substrate: C[C@H](O)C(=O)C1=Nc2c(nc(N)[nH]c2=O)NC1
[12] = substrate: C[C@H](O)[C@H](O)c1cnc2[nH]c(N)nc(=O)c2n1
[13] = substrate: Nc1nc2c(c(=O)[nH]1)N=C(CO)CN2

B1: Arad3529 (Rhizobium rhizogenes K84) (protein)
chain: MSYSFMSPPNAARFVLSNATVPAVTVVGFTGPSSEGLMKADIVVADGLIKDILPAGTAPAELAKADMRDGMVWPTFADMHTHLDKGHIWERRANPDGSFMGALDAVRSDREANWSAADVRKRMEFSLRAAYAHGTSLIRTHLDSLAPQHRISFEVFSEVREAWKDKIALQAVALFPLDFMVDDAFFADLTTVVREAGGLLGGVTQMNPDIDAQLDKLIRAAAANGLDIDLHVDETEDREVLTLKAIAAAVLRNGFTGKVTAGHCCSLARQDENVAAATIDLVAKAGISIVALPMCNMYLQDRHPGRTPRWRGVTLLHELAAAGVPTAVASDNTRDPFYAYGDLDPVEVFREAVRILHLDHPLDTAARVVTTSPASILGRPDIGRIAVGGPADLVLFSARRWSEFLSRPQSDRVVLRKGKVIDRSLPDYRELDTVIGA
- Km [1]: 12 ± 2 µM
- kcat [1]: 64 ± 12 s⁻¹
- kcat/Km [1]: 5.2e+06 M⁻¹ s⁻¹
- Km [2]: 13 ± 1 µM
- kcat [2]: 48 ± 2 s⁻¹
- kcat/Km [2]: 3.7e+06 M⁻¹ s⁻¹
- Km [3]: 61 ± 7 µM
- kcat [3]: 19 ± 1 s⁻¹
- kcat/Km [3]: 310000 M⁻¹ s⁻¹
- Km [4]: 93 ± 13 µM
- kcat [4]: 0.09 ± 0.007 s⁻¹
- kcat/Km [4]: 930 M⁻¹ s⁻¹
- Km [5]: 39 ± 4 µM
- kcat [5]: 131 ± 4 s⁻¹
- kcat/Km [5]: 3.3e+06 M⁻¹ s⁻¹
- Km [6]: 23 ± 3 µM
- kcat [6]: 28 ± 1 s⁻¹
- kcat/Km [6]: 1.2e+06 M⁻¹ s⁻¹
- Km [7]: 50 ± 10 µM
- kcat [7]: 6.4 ± 0.5 s⁻¹
- kcat/Km [7]: 130000 M⁻¹ s⁻¹
- Km [8]: 5.7 ± 0.5 µM
- kcat [8]: 1.6 ± 0.1 s⁻¹
- kcat/Km [8]: 280000 M⁻¹ s⁻¹
- Km [9]: 27 ± 2 µM
- kcat [9]: 110 ± 3 s⁻¹
- kcat/Km [9]: 4e+06 M⁻¹ s⁻¹
- Km [10]: 200 ± 100 µM
- kcat [10]: 0.036 ± 0.008 s⁻¹
- kcat/Km [10]: 260 M⁻¹ s⁻¹
- Km [11]: 22 ± 9 µM
- kcat [11]: 2.9 ± 0.3 s⁻¹
- kcat/Km [11]: 130000 M⁻¹ s⁻¹
- Km [12]: 47 ± 9 µM
- kcat [12]: 46 ± 4 s⁻¹
- kcat/Km [12]: 1e+06 M⁻¹ s⁻¹
- Km [13]: 37 ± 7 µM
- kcat [13]: 1.2 ± 0.1 s⁻¹
- kcat/Km [13]: 33000 M⁻¹ s⁻¹
